Several values for one entry are separate records, joined by “and”; a condition that tells them apart may be missing. Identical values can stand only once. Positions of bridges follow the written chain, without caps; N, C: chain ends. No end group written: not given here.
B1: miniBR3 (peptide)
peptide: TPCVPAECFDLLVRHCVACGLLRTPR-NH2
modifications: disulfide 3-16, 8-19
notes: Synthetic peptide with the 1:3, 2:4 disulfide-bonding pattern; also called 26-residue miniBR3 peptide; the larger core domain
B2: bhpBR3 (peptide)
peptide: CHWDLLVRHWVC-NH2
modifications: disulfide 1-12 (inferred)
notes: BR3 residues 26-31 (DLLVRH) embedded in the disulfide-bonded beta-hairpin (bhp) scaffold; also called the 12-residue peptide; turn peptide bhpBR3

Target: T1, BAFF (UniProt Q9Y275 134-285, limits assumed)
T1 construct: Coated on ELISA plates at 2 ug/ml; The construct is not described; also called BLyS; TALL-1
T1 sequence (Q9Y275 134-285 limits assumed): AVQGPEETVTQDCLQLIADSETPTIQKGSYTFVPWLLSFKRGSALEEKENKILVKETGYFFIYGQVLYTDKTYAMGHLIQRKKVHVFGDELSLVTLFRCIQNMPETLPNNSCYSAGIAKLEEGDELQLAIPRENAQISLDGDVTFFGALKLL
Test: competitive displacement ELISA, BAFF coated, biotinylated miniBR3 as tracer
Experimental: FIGS. 16A-16B depict binding of BR3 variants to BAFF. (A) Competitive displacement of biotinylated miniBR3 measured by ELISA (see methods). Data are shown for BR3 extracellular domain (filled triangles), miniBR3 (open squares), and bhpBR3 (filled circles). IC₅₀ values from the fitted curves are 70 nM, 65 nM, and 15 μM, respectively. (B) HeLa cells expressing a chimeric receptor composed of the extracellular ligand-binding domain of BR3 fused to the death domain of DR4 were seeded 16 hr before treatment. BAFF (2 nM) was added to cells alone or after being preincubated with miniBR3 (3 μM), bhpBR3 (100 μM) or a control hairpin peptide with an unrelated turn sequence in the same bhp scaffold (bhpC, 100 μM) for 30 min at room temperature. Apoptosis was assessed 24 hr later. […]
Nunc Maxisorp 96-well plates were coated overnight at 4° C. with 100 μl of a 2 μg/ml solution of BAFF in carbonate buffer, pH 9.6. […] The reaction was quenched with 100 μl/well 1M H₃PO₄ and the plate read at 490 nm. IC₅₀ values were determined by a four-parameter fit of the competitive displacement ELISA signal. The concentrations of initial stock solutions of bhpBR3 were determined spectrophotometrically as described (Gill and von Hippel, (1989) Anal. Biochem. 182:319-326), while those of miniBR3 and BR3 extracellular domain were determined by quantitative amino acid analysis.

Row | Binder | IC50
1 | B1 | 65 nM and ~70 nM
2 | B2 | 15000 nM
